Measured values from US9878046B2, “Adverse side-effects associated with administration of an anti-hyaluronan agent and methods for ameliorating or preventing the side-effects” (Halozyme, Inc., priority 2010, dated 2018).
“Also recorded” adds a separate entry of the source.

What was measured:
[1] = Hyaluronidase activity (microturbidity assay), specific activity; format: biochemical
Experimental: Hyaluronidase activity of soluble rHuPH20 is measured by incubating soluble rHuPH20 with sodium hyaluronate (hyaluronic acid) for a set period of time (10 minutes) and then precipitating the undigested sodium hyaluronate with the addition of acidified serum albumin. The turbidity of the resulting sample is measured at 640 nm after a 30 minute development period.
Dilutions of the sample were prepared in Enzyme Diluent Solutions. The Enzyme Diluent Solution was prepared by dissolving 33.0±0.05 mg of hydrolyzed gelatin in 25.0 mL of the 50 mM PIPES Reaction Buffer (140 mM NaCl, 50 mM PIPES, pH 5.5) and 25.0 mL of sterile water for injection (SWFI), and diluting 0.2 mL of 25% Buminate solution into the mixture and vortexing for 30 seconds. This was performed within 2 hours of use and stored on ice until needed. The samples were diluted to an estimated 1-2 U/mL. […]
The MULTIDROP 384 was prepared to stop the reaction by priming the machine with Serum Working Solution and changing the volume setting to 240 μL. […] The plate was removed and shaken on a plate reader for 10 seconds. After a further 15 minutes, the turbidity of the samples was measured at 640 nm and the hyaluronidase activity (in U/mL) of each sample was determined by fitting to the standard curve.
Specific activity (Units/mg) was calculated by dividing the hyaluronidase activity (U/ml) by the protein concentration (mg/mL).

[2] = test system: tumor regions; assay: Apparent diffusion coefficient MRI (ADC-MRI) of tumors; format: in vivo, human
Experimental: Scans were performed pre-treatment and post-treatment.
Apparent diffusion coefficient magnetic Resonance imaging (ADC-MRI) measures the volume of water that has moved across the cell membrane based upon a calculation derived from the pre- and post-treatment scans. ADC-MRI scans were completed for a total of 10 of the 14 patients in the study described in Example 6 and 4 of the 5 patients in the study described in Example 10. […] Increased ADC values are consistent with the mechanism of action of PEGPH20.

[3] = test system: HA catabolites; assay: HA catabolites in dogs; format: in vivo, beagle dog; conditions: after PEGPH20 administration, with or without dexamethasone
Experimental: HA catabolites also were measured as described in Example 6.

[4] = Clinical study (Phase 1-101), musculoskeletal adverse events of PEGPH20
Source text: The median age of the patients was age 61 (range 56-86) with tumor types including histiocytoma, colorectal, pancreatic, bladder, carcinoid and ovarian. In all cases, the patients entered the program under pain medication related to their presenting condition but not for study drug-related pain.

[5] = test system: hyaluronan; assay: Hyaluronan staining of BxPC3 tumor sections; format: in vivo, human (xenograft in athymic female nude mice); conditions: Day 18, dexamethasone low or high dose, PEGPH20 4.5 mg/kg, or both
Experimental: Tumor tissues from the two satellite mice from all 6 treatment groups in Example 9B.1 above, were harvested by tissue biopsy on Day 18 and stained for the presence of hyaluronan. Tumor biopsies were fixed in 10% NBF for 48 hours, embedded in paraffin, and sectioned. Samples were probed for hyaluronan using a biotinylated HA-binding protein (HABP), then probed with FITC-labeled streptavidin for detection. The cell nuclei were counterstained with DAPI (4′,6-diamidino-2-phenylindole) reagent. Micrographs were then captured using a Zeiss Microscope (Thornwood, N.Y.) coupled with the Spot imaging program (Diagnostic Instruments, Inc).
Hyaluronan expression in the sections was evaluated by the level of green fluorescent intensity in the sections.

[6] = test system: tissue HA (hyaluronan); assay: Histochemical HA staining of skeletal muscle and skin biopsies; format: in vivo, beagle dog
Experimental: Twenty-four hours post-dose (Day 60), skeletal muscle biopsies were taken from each of the three treated dogs and also from an untreated control beagle dog. The medial semitendinosis/medial membranosus muscle(s) were targeted for biopsies. The area of the biopsy was shaved using electric clippers and scrubbed using either Chlorhexidine or Povidone-Iodine solutions. Bupivacaine or Lidocaine (2-3 mg/kg) was injected subcutaneously (SC) in the area of the biopsy for local analgesia. The muscle biopsy was collected using a 2-mm-diameter biopsy needle. A gauze sponge was applied with slight pressure to stop any bleeding. Metacam (meloxicam) 0.2 mg/kg was injected SC to control pain. Biopsy samples were placed in Eppendorf tubes or equivalent with approximately 200 μL 10% neutral-buffered formalin (NBF).
Biopsied tissue samples were stained for tissue HA using a highly specific histochemical staining method. […] The cell nuclei were counterstained with DAPI (4′,6-diamidino-2-phenylindole) reagent. Micrographs were then captured using a Zeiss Microscope (Thornwood, N.Y.) coupled with the Spot imaging program (Diagnostic Instruments, Inc).
The medial semitendinosis/medial membranosus muscle(s) were targeted for biopsies. The area of the biopsy was shaved using electric clippers and scrubbed using either Chlorhexidine or Povidone-Iodine solutions. […]

[7] = all scanned patients of both studies

B1: PEGPH20 (protein)
chain: LNFRAPPVIPNVPFLWAWNAPSEFCLGKFDEPLDMSLFSFIGSPRINATGQGVTIFYVDRLGYYPYIDSITGVTVNGGIPQKISLQDHLDKAKKDITFYMPVDNLGMAVIDWEEWRPTWARNWKPKDVYKNRSIELVQQQNVQLSLTEATEKAKQEFEKAGKDFLVETIKLGKLLRPNHLWGYYLFPDCYNHHYKKPGYNGSCFNVEIKRNDDLSWLWNESTALYPSIYLNTQQSPVAATLYVRNRVREAIRVSKIPDAKSPLPVFAYTRIVFTDQVLKFLSQDELVYTFGETVALGASGIVIWGTLSIMRSMKSCLLLDNYMETILNPYIINVTLAAKMCSQVLCQEQGVCIRKNWNSSDYLHLNPDNFAIQLEKGGKFTVRGKPTLEDLEQFSEKFYCSCYSTLSCKEKADVKDTDAVDVCIADGVCIDAFLKPPMETEEPQIFY
final enzyme activity ([1]; PEGylated rHuPH20 material at 3.5 mg/mL): 140,000 U/mL
specific activity ([1]; rHuPH20 preparation vs PEGylated form): about 32,000 Units/mg
Change in Tumor ADC-MRI from baseline ([2]; 0.5 μg/kg, 2x/wk, scan D3): no change
Change in Tumor ADC-MRI from baseline ([2]; 0.5 μg/kg, 21 day cycle, individual patients, scan D3 or D4): decrease in lymph nodes; also recorded: increase
Change in Tumor ADC-MRI from baseline ([2]; 0.75 μg/kg, 21 day cycle, individual patients, scan D3 (D30)): increase; also recorded: no change
Change in Tumor ADC-MRI from baseline ([2]; 1.0 μg/kg, 21 day cycle, scan D5): increase
Change in Tumor ADC-MRI from baseline ([2]; 1.5 μg/kg, 21 day cycle, scan D3): no change
Change in Tumor ADC-MRI from baseline ([2]; 50 μg/kg, scan D4): no change
patients with ADC values decreased [2, 7]: 2 of 14
patients with ADC values unchanged [2, 7]: 5 of 14
patients with increases in ADC-MRI [2, 7]: 7 of 14
HA catabolites [3]: appearance of HA catabolites
histopathologic changes of knee joint or skeletal muscle (IV twice weekly, 4 weeks): no associated histopathologic changes
clinical signs (monkeys administered PEGPH20): hypoactivity, lethargy, disorientation, hunched posture and a decrease in limb joint angle
dose-limiting toxicity ([4]; 0.5 μg/kg IV every 21 days): No dose-limiting toxicities
musculoskeletal side effects, severity ([4]; 0.5 μg/kg IV every 21 days, three patients): intermittent Grade 1 or transient Grade 2
dose-limiting toxicity ([4]; 0.5 μg/kg IV twice weekly): met dose-limiting toxicity
severity of muscle/joint pain ([4]; 0.5 μg/kg IV twice weekly, after 2 doses): Grade 3
musculoskeletal pain leading to discontinuation (summary) ([4]; 0.5 μg/kg in a 21 day cycle): Grade 3
dose-limiting toxicity ([4]; 0.75 μg/kg IV every 21 days, Grade 3 event after first cycle): not considered a dose-limiting toxicity
musculoskeletal side effects, severity ([4]; 0.75 μg/kg IV every 21 days, cohort and individual patients): intermittent Grade 1 or transient Grade 2; also recorded: Grade 1; also recorded: Grade 3; also recorded: Grade 2
dose-limiting toxicity ([4]; 1.0 μg/kg IV every 21 days): no dose-limiting toxicities
musculoskeletal symptoms, severity ([4]; 1.0 μg/kg IV every 21 days, one of three patients): Grade 1
dose-limiting toxicity ([4]; 1.5 μg/kg IV every 21 days, one patient): no dose-limiting toxicities
musculoskeletal pain leading to discontinuation (summary) ([4]; 50.0 μg/kg dose twice weekly, individual patients): Grade 4; also recorded: Grade 3
duration of pain ([4]; single IV dose 0.05 mg/kg): more than 9 days
onset of stiffness and muscle and joint pain after dosing ([4]; single IV dose 0.05 mg/kg): 6 to 10 h
severity of muscle/joint pain ([4]; single IV dose 0.05 mg/kg, individual patients): Grade 3
hyaluronan staining of tumor sections [5]: almost completely absent
hyaluronan staining of skeletal muscle ([6]; 24 h after Day 59 dose, antibody-positive dogs): did not remove extracellular hyaluronan in skeletal muscle samples
hyaluronan staining, post-treatment skeletal muscle and skin ([6]; 24 h after first IV dose, PEGPH20 0.3 mg/kg alone, or 0.3 / 1.0 mg/kg + dexamethasone 4 mg BID): virtually no hyaluronan staining
